Measurements as given in US20190062420A1 (Janssen / Centocor, published 2019).
Positions count from the first letter of the chain named.

T1: human FcγRIIB (NM_004001) expressed on cells (human, UniProt P31994 43-310)
T1 sequence: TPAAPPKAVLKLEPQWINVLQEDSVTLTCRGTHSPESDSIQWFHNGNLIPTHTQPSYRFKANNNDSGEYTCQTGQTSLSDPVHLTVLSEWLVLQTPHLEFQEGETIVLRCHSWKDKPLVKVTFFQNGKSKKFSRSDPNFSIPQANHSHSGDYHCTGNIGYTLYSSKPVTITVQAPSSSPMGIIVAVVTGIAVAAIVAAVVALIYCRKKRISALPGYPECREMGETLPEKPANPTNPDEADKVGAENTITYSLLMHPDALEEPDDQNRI

T2: human FcγRIIA (NM_021642) expressed on cells (human, UniProt P12318 36-317)
T2 sequence: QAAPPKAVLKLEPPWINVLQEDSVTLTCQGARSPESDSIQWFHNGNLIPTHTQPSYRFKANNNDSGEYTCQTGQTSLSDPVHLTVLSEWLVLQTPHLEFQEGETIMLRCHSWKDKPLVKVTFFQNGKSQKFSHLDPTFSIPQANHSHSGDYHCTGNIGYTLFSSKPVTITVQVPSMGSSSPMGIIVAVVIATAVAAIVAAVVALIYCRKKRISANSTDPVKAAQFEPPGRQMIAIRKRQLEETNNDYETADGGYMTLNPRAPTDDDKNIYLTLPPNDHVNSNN

T3: human OX40 expressed on HEK-Blue: OX40 cells (human, UniProt P43489 29-277)
T3 construct: also called CD134
T3 sequence: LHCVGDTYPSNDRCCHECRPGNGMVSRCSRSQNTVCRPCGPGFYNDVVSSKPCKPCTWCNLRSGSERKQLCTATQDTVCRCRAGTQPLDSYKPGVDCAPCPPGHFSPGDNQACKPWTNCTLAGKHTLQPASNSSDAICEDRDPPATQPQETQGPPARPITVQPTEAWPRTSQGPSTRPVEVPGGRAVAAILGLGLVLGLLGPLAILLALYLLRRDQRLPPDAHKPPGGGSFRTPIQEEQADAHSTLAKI

B1: OX40SF2IgG2sigma_R2BS12_HC-C (bispecific antibody)
heavy: QVQLVQSGAEVKKPGSSVKVSCKASGYTFKDYTMHWVRQAPGQGLEWIGGIYPNNGGSTYNQNFKDRVTLTADKSTSTAYMELSSLRSEDTAVYYCARMGYHGPHLDFDVWGQGTTVTVSSASTKGPSVFPLAPCSRSTSESTAALGCLVKDYFPEPVTVSWNSGALTSGVHTFPAVLQSSGLYSLSSVVTVPSSNFGTQTYTCNVDHKPSNTKVDKTVERKCCVECPPCPAPPAAASSVFLFPPKPKDTLMISRTPEVTCVVVDVSAEDPEVQFNWYVDGVEVHNAKTKPREEQFNSTFRVVSVLTVLHQDWLNGKEYKCKVSNKGLPSSIEKTISKTKGQPREPQVYTLPPSREEMTKNQVSLTCLVKGFYPSDIAVEWESNGQPENNYKTTPPMLDSDGSFFLYSKLTVDKSRWQQGNVFSCSVMHEALHNHYTQKSLSLSPGKGGGGGSGGGGSGGGGSGGGGSLPAPKNLVVSRVTEDSARLSWTAPDAAFDSFLIAYAEYWEGGEAVVLTVPGSERSYDLTGLKPGTEYFVQINGVKGGFWSIPLSAIFTT
light: DIQMTQSPSSLSASVGDRVTITCKASQDVGAAVAWYQQKPGKAPKLLIYWASTRHTGVPSRFSGSGSGTDFTLTISSLQPEDFATYYCQQYINYPLTFGGGTKVEIKRTVAAPSVFIFPPSDEQLKSGTASVVCLLNNFYPREAKVQWKVDNALQSGNSQESVTEQDSKDSTYSLSSTLTLSKADYEKHKVYACEVTHQGLSSPVTKSFNRGEC
notes: mAbtyrin: anti-OX40 antibody OX40SF2, effector silent IgG2sigma, with linker and R2BS12 FN3 domain at the C-terminus of the heavy chain; also called mAbtyrin
B2: OX40SF2IgG2sigma_R2BS6_HC-C (bispecific antibody)
heavy: QVQLVQSGAEVKKPGSSVKVSCKASGYTFKDYTMHWVRQAPGQGLEWIGGIYPNNGGSTYNQNFKDRVTLTADKSTSTAYMELSSLRSEDTAVYYCARMGYHGPHLDFDVWGQGTTVTVSSASTKGPSVFPLAPCSRSTSESTAALGCLVKDYFPEPVTVSWNSGALTSGVHTFPAVLQSSGLYSLSSVVTVPSSNFGTQTYTCNVDHKPSNTKVDKTVERKCCVECPPCPAPPAAASSVFLFPPKPKDTLMISRTPEVTCVVVDVSAEDPEVQFNWYVDGVEVHNAKTKPREEQFNSTFRVVSVLTVLHQDWLNGKEYKCKVSNKGLPSSIEKTISKTKGQPREPQVYTLPPSREEMTKNQVSLTCLVKGFYPSDIAVEWESNGQPENNYKTTPPMLDSDGSFFLYSKLTVDKSRWQQGNVFSCSVMHEALHNHYTQKSLSLSPGKGGGGGSGGGGSGGGGSGGGGSLPAPKNLVVSRVTEDSARLSWTAPDAAFDSFLIQYQESEKVGEAIVLTVPGSERSYDLTGLKPGTEYTVSIYGVQYAAWYLPRHHEASNPLSAIFTT
light: B1 light
notes: mAbtyrin: anti-OX40 antibody OX40SF2, effector silent IgG2sigma, with linker and R2BS6 FN3 domain at the C-terminus of the heavy chain; also called mAbtyrin
B3: OX40SF2IgG2sigma_R2BS39_HC-C (bispecific antibody)
heavy: QVQLVQSGAEVKKPGSSVKVSCKASGYTFKDYTMHWVRQAPGQGLEWIGGIYPNNGGSTYNQNFKDRVTLTADKSTSTAYMELSSLRSEDTAVYYCARMGYHGPHLDFDVWGQGTTVTVSSASTKGPSVFPLAPCSRSTSESTAALGCLVKDYFPEPVTVSWNSGALTSGVHTFPAVLQSSGLYSLSSVVTVPSSNFGTQTYTCNVDHKPSNTKVDKTVERKCCVECPPCPAPPAAASSVFLFPPKPKDTLMISRTPEVTCVVVDVSAEDPEVQFNWYVDGVEVHNAKTKPREEQFNSTFRVVSVLTVLHQDWLNGKEYKCKVSNKGLPSSIEKTISKTKGQPREPQVYTLPPSREEMTKNQVSLTCLVKGFYPSDIAVEWESNGQPENNYKTTPPMLDSDGSFFLYSKLTVDKSRWQQGNVFSCSVMHEALHNHYTQKSLSLSPGKGGGGGSGGGGSGGGGSGGGGSLPAPKNLVVSRVTEDSARLSWTAPDAAFDSFLIQYQESEKVGEAIVLTVPGSERSYDLTGLKPGTEYTVSIYGVSHGPWYNYGEWRSNPLSAIFTT
light: B1 light
notes: mAbtyrin: anti-OX40 antibody OX40SF2, effector silent IgG2sigma, with linker and R2BS39 FN3 domain at the C-terminus of the heavy chain; also called mAbtyrin
B4: OX40SF2IgG2sigma_R2BS56_HC-C (bispecific antibody)
heavy: B1 heavy with L500S, A504W, W507R, E508K, V513I, Q538L, N540Y, F546W, W547Q, I549K
light: B1 light
notes: mAbtyrin: anti-OX40 antibody OX40SF2, effector silent IgG2sigma, with linker and R2BS56 FN3 domain at the C-terminus of the heavy chain; also called mAbtyrin

The binders below were run against T1, human FcγRIIB (NM_004001) expressed on … (assay: cell-based or functional assay).

Row | % activity at 1 µg/ml with Raji cells (HEK-Blue: OX40 NF-κB reporter, relative to 1 µg/ml OX40 ligand) [%] | fold of agonism enhancement upon crosslinking (Raji cells) [fold] | Binder
1 | 96.3 | 31 | B1
2 | 83.5 | 17 | B2
3 | 99.5 | 24 | B3
4 | 107 | 15 | B4

These binders were tested against T2, human FcγRIIA (NM_021642) expressed on … (assay: cell-based or functional assay).

Row | Binder | % OX40 cell killed by macrophages (ADCP, 1 µg/ml) [%]
5 | B1 | 92
6 | B2 | 82
7 | B3 | 83
8 | B4 | 91

The binders below were run against T3, human OX40 expressed on HEK-Blue: OX40 … (assay: flow cytometry; HEK-Blue: OX40 cells).
Description: (§1) 2×10⁵ cells per well were seeded in 96-well plate and blocked in BSA Stain Buffer (BD Biosciences, San Jose, USA) for 30 min at 4° C. Cells were incubated with test mAbtyrin on ice for 1.5 h at 4° C. After being washed twice with BSA stain buffer, the cells were incubated with R-PE labeled anti-human or anti-mouse IgG secondary antibody (Jackson Immunoresearch Laboratories) for 45 min at 4° C. The cells were washed twice in stain buffer and then resuspended in 150 μL of Stain Buffer containing 1:200 diluted DRAQ7 live/dead stain (Cell Signaling Technology, Danvers, USA). PE and DRAQ7 signals of the stained cells were detected by Miltenyi MACSQuant flow cytometer (Miltenyi Biotec, Auburn, USA) using B2 and B4 channel respectively. Live cells were gated on DRAQ7 exclusion and the geometric mean fluorescence signals were determined for at least 10,000 live events collected. FlowJo software (Tree Star) was used for analysis. Data was plotted as the logarithm of antibody concentration versus mean fluorescence signals. Nonlinear regression analysis was performed by GraphPad Prism 6 (GraphPad Software, Inc.) and EC₅₀ values were calculated.
The binding of mAbtyrins on OX40 expressed on cell surface were investigated by flow cytometry assay described for testing mAbtyrin binding to FcγR. A stable HEK-Blue reporter cell line expressing human OX40 (HEK-Blue: OX40) was established by transfection OX40 expression plasmid (pUNO1-hOX40) into HEK-Blue™ Null 1 cells engineered to express a secreted embryonic alkaline phosphatase (SEAP) reporter gene under the control of NF-κB-inducible promoter (IFN-β minimal promoter). mAbtyrins were incubated with HEK-Blue: OX40 cells and the binding was detected by flow cytometry using a PE-labeled Goat F(ab′)₂ against Human IgG(γ).

Row | Binding to HEK-Blue: OX40 cells (mean signal at 1 µg/ml) [mean fluorescence signal] | Binder
9 | 9710 | B1
10 | 10400 | B2
11 | 9320 | B3
12 | 16900 | B4

The binders below were run against T1, human FcγRIIB (NM_004001) expressed on … (assay: flow cytometry; Expi293F cells transfected with FcγRIIB).
Description: (§2) Plasmids expressing cDNAs encoding human FcγRI (NM_000566) (SEQ ID NO: 44), FcγRIIA (NM_021642) (SEQ ID NO: 2), FcγRIIB (NM_004001) (SEQ ID NO: 3), and FcγRIIIA (NM_000569) (SEQ ID NO: 45) (Origene) were transiently transfected into Expi293F cells by ExpiFectamine293 transfection kit (Life Technologies). Flow cytometry assays were performed 48 h after transfection.
as §1

Row | EC50 [mg/L] | Binder
13 | 0.926 | B1
14 | 1.56 | B2
15 | 1.87 | B3
16 | 1.05 | B4

Each binder was assayed against T1, human FcγRIIB (NM_004001) expressed on … (assay: flow cytometry; Raji cells (express predominantly FcγRIIB)).
Description: as §1
Raji cell is a cell line derived from B cells that express predominantly FcγRIIB. The binding of mAbtyrins on Raji cells were investigated by flow cytometry assay described for testing mAbtyrin binding to FcγR. Binding of the mAbtyrins were detected by flow cytometry using a PE-labeled Goat F(ab′) against Human IgG(γ).

Row | Binding to Raji cells mean signals at 10 µg/ml [mean fluorescence signal] | EC50 [mg/L] | Binder
17 | 2610 | > 10 | B1
18 | 5380 | > 10 | B2
19 | 8220 | > 10 | B3
20 | 9120 | 9.91 | B4

Target: T1, human FcγRIIB (NM_004001) expressed on …
Assay: as above
Remark: another data set of the same source

Row | fold binding signal over OX40SF2IgG2sigma at 10 µg/mL [fold] | Binder
21 | ≥ 6 | B1
22 | ≥ 6 | B2
23 | ≥ 6 | B3
24 | ≥ 6 | B4

Each binder was assayed against T2, human FcγRIIA (NM_021642) expressed on … (assay: flow cytometry; Expi293F cells transfected with FcγRIIA).
Description: as §2, §1

Row | EC50 [mg/L] | Binder
25 | 0.302 | B1
26 | 0.7 | B2
27 | 0.532 | B3
28 | 0.287 | B4
